Experimental data as given in PMC1911201 (Molecular Systems Biology, 2007).

How the values were obtained:
Assay in all cases: peptide or protein array
[1] = target: T1, Dis3 (S. cerevisiae, UniProt Q08162 1-1001)
T1 sequence (looked up): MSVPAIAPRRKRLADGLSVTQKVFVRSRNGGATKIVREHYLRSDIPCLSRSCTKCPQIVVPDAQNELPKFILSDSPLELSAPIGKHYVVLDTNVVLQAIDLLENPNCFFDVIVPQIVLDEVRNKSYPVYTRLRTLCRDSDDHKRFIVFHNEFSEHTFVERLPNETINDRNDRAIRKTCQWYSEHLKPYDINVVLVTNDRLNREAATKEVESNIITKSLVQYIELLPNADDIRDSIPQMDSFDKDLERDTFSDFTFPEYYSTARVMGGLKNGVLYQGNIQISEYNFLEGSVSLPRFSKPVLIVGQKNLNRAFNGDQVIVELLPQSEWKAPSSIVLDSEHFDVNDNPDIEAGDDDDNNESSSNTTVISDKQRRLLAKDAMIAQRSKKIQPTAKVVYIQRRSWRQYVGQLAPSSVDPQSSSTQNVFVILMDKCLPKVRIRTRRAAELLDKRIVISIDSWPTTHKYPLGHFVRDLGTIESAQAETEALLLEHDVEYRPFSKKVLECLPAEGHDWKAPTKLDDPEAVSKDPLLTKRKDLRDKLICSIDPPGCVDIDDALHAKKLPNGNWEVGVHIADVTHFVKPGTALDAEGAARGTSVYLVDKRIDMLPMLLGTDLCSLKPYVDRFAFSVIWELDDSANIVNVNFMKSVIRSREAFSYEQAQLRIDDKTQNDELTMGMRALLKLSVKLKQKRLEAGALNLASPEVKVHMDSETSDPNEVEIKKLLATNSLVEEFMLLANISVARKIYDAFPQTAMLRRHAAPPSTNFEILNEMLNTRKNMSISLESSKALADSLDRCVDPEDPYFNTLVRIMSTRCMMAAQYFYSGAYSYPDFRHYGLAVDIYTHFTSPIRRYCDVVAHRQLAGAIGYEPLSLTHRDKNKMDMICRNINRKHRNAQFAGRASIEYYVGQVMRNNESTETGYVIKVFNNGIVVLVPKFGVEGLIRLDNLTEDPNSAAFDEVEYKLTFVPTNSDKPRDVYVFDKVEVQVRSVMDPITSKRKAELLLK

[2] = target: T2, Yjl084c (S. cerevisiae, UniProt P47029 1-1046)
T2 sequence (looked up): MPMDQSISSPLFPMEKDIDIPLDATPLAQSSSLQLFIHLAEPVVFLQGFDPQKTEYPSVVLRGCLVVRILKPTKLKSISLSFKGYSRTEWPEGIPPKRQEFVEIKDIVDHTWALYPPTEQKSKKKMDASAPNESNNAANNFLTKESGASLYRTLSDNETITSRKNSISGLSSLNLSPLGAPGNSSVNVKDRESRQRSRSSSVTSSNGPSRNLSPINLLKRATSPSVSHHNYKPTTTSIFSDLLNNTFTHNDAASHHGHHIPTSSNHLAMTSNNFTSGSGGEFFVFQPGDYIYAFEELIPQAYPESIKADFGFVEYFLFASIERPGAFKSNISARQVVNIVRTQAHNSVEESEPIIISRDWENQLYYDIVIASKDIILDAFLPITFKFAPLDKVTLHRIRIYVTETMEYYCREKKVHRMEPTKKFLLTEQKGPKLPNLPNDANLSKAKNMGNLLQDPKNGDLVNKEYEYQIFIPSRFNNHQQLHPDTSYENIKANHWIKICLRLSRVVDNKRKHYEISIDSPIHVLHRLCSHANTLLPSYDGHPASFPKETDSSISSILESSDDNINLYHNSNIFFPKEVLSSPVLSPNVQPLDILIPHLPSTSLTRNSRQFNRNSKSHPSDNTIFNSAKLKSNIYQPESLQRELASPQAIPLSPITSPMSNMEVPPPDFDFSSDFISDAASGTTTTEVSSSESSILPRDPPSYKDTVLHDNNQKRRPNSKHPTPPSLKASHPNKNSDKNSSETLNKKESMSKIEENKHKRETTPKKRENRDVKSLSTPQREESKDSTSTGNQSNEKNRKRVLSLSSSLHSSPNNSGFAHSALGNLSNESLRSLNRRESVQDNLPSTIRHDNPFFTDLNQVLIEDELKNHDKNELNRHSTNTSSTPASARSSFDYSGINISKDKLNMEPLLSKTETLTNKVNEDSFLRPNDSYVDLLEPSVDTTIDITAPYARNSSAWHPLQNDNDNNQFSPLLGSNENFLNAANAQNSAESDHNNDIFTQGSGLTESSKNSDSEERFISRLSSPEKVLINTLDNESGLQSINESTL

[3] = target: T3, Ykr021w (S. cerevisiae, UniProt P36117 1-915)
T3 sequence (looked up): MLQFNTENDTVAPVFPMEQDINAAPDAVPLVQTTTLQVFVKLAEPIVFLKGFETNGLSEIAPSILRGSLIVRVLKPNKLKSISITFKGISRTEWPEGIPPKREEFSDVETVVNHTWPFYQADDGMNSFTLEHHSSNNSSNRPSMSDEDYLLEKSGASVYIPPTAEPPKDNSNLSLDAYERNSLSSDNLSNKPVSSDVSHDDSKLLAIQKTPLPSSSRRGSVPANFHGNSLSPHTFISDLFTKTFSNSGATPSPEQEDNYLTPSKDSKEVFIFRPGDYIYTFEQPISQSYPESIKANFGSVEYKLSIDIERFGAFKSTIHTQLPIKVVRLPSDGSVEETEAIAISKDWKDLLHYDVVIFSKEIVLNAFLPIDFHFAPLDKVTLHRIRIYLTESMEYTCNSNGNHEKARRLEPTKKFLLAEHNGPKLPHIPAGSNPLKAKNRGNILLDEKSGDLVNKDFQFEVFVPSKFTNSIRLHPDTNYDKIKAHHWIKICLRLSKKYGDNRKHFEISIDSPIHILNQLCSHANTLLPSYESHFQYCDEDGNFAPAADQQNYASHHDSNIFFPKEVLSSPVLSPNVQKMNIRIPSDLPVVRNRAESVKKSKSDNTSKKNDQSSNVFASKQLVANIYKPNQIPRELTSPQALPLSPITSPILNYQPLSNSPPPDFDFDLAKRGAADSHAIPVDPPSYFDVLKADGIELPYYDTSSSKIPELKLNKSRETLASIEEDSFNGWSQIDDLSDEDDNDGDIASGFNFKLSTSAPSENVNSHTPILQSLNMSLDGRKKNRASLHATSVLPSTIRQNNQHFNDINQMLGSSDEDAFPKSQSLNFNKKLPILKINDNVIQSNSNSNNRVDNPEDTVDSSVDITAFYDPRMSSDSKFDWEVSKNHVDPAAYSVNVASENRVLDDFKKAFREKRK

Measured: binding result

B1: Rsp5 (enzyme)
chain: not shown
modifications: labeled with AlexaFluor 647 (Microscale Protein Labeling kit)
binds: all assays above
